According to article PMC9468479:

Target: SARS-CoV-2 Omicron spike protein (SARS-CoV-2 B.1.1529 spike protein) (SARS-CoV-2 (Omicron)) (UniProt P0DTC2)
Test: SPR

Urtica dioica agglutinin (UDA) (natural protein)
Kd: 11 nM
